Assay results reported in the supplement of paper PMC12042874.
± gives the uncertainty stated by the source.

assay: amyloid nucleation score (Sup35N fusion, yeast selection) (log enrichment); library NNK3; higher = more nucleation; inactive = no reads after selection
Method in brief: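 Output and input plasmid inserts were sequenced by Illumina after psi-negative yeast carrying Sup35N fused to peptides of 20 random codons had been induced 24 hours with 100 μM copper sulfate and grown 7 days at 30°C on medium lacking adenine and uracil. The nucleation score is the DiMSum log enrichment of output over input reads, centred on the mode score of non-aggregating sequences. Sequences with under 100 input reads were excluded.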

Substance	amyloid nucleation score
ISFLADYRQPSVKFVGGYVM	inactive
MCRSNFAWSPSHK	inactive
WRRCMRYGTASASSSENAHY	0.837 ± 0.18
RTINWASCQSWLKVTSPKGL	inactive
LINEECFFACVEVIGNVFRV	-0.888 ± 1.1
AMSTGSSTWWYRSSKAIRGS	inactive
SSPRYVCWNF	inactive
VLGNFSSFVAAKVARRS	inactive
SSVSSMRRSHYETMMGRTVG	inactive
VTCNVSSYGTMKEKVAYEGS	-0.003 ± 0.88
IQSAMSLIVIYHGK	2.69 ± 0.076
CYSFLWALRGMEF	inactive
SIFLDEIDFKIT	0.409 ± 0.16
ILHLQSPGQATCANNKCLFP	inactive
YLMVTVSALPSACCGVCVPW	1.48 ± 0.1
LVVCGVRWSMFIGIS	inactive
FNVYFGAIVFKEDLPCSYSA	1.23 ± 0.12
NMIFA	inactive
LDCHVS	inactive
MRMVTSCTISF	inactive
FLNLNNMGLSYMAVSLVEG	inactive
SVTSHDPMACHLLVCSV	inactive

Substance	amyloid nucleation score
TRPSTIHFPVWFVGKSCRCD	inactive
KVVFFTALTEPWFSPQFQGL	inactive
VPLIMSRGRRCRMLFKLPST	inactive
CTSQVDT	inactive
DFSYRENYVPIDGIRLTVFW	inactive
INTKECYHSGS	inactive
RFSRTDGRLWSCKTCQ	inactive
VLCLVAGDYMNELIGGKGKV	inactive
AWLNFCPSHVLLLFESYLNV	inactive
HDCCDLGFSVDV	inactive
VGLNQSLNRWPTSSSQHMGG	inactive
LCPRRMA	0.592 ± 0.29
SVGFRYHVLRKSKWCVYIVE	inactive
DRISSNDMCGWESGVISIHD	inactive
TWNVPWE	inactive
EVSSGCCERGVYLMLLCTGT	0.091 ± 0.53
YGGMVN	inactive
NFCFDSPLIFPDCQLG	inactive
SDSDMNKNMHMDSTHGRAMD	inactive
KKASVLSHVTYNRMITAWNI	inactive
SCIYMSC	1.73 ± 0.073
SGFYRENARILTV	inactive

Substance	amyloid nucleation score
KGFNSALLMWVLYINKQ	inactive
SLLTFCFHIESLWMWYWMCH	inactive
SWVHVSTFWYVAFGFEKSAG	inactive
VAPGDPNMIGHGLHVFTTTL	-0.498 ± 0.83
GCNACVTSTCIRVVCGNLKC	0.715 ± 0.3
CGMLTGVIKNLDLTRRYKC	inactive
GSQRLLALWNY	inactive
NFTRPLSWNYLR	inactive
NVCDRLLDKPHELSFSEKSV	inactive
QSTIEKHDMPDRLFIVAAGS	inactive
FFYYMYMFDVITILRVIMGC	inactive
IHKTFLTL	inactive
WIDFLSRLTIRGSDMYHQEY	0.37 ± 0.29
QAIQPSMQGLWQRALTSRSP	inactive
YSCYSSLL	inactive
MASVSREAVQYNAWESMAIY	inactive
EALGKSFLVKFKTIKYLRLA	inactive
YFLEGNFESRWGECRSARSW	0.053 ± 0.52
IWNLWFRTFCT	0.519 ± 0.25
RYLTNLWNYTFLINRAMLTY	inactive
IMRMRLVCWTYKYNSLLPFV	inactive
